The test deals with NF-kB from mouse cells (nuclear extracts of TPA-stimulated 70Z/3 pre-B cells; also nuclear extracts of the mouse B cell line WEHI 231; cytosolic precursor of 70Z/3) (mouse).

From US20060063709A1 come the findings set out here.

Turning to “IkB (protein inhibitor of NF-kB) prepared from cytosol of unstimulated mouse 70Z/3 pre-B cells”, the DNA binding activity of NF-kB in EMSA (inhibitor assay) was above 90% and the reactivation of IkB-inactivated NF-kB DNA binding activity by DOC (EMSA) amounted to 66%.
